B1: mRNA-splicing (parent)
chain: AGUUGCUGCUGGGAGCUCCAGCACAGUGAAAUGGACAGAAGGGCAGAGCAA

Variants of: B1
Assay: exon inclusion enrichment index; higher = more inclusion; WT1 exon 5 minigene, HEK293

Variant | exon inclusion enrichment index
G5U G8U C9U G34C A35U | 0.00745
G5C C6G U7C U10C C24G A25G | 2.96
U3A U4A G5C C6G U7C U10C | 3.05
G5A C6U U7A G8U C9A A23U C24G | 0.128
U3G U4C C6A U7C C9A U10C | 3.64
U4G C6A U7C C9A U10C | 2.45
G5A U7C G8A U10C A35U | 0.475
G5C C6G U7C U10C G34C A35C | 0.321
G5A U7C G8A U10C U17G | 1.81
G5C C6A U7C G8A U10A A14C G15U | 0.00827
C6A U7C C9A U10C G46U A47C | 3.45
G5A U7C G8A U10C C24A A25U | 2.06
G5C C6A U7C G8A C9U U10C | 2.03
G5U G8U C9U C16A U17G | 0.0387
G5A C6U U7A G8U C9A G33U | 0.00963
G5A C6U U7A G8U C9A G34C A35G | 0.0452
G5C C6U G8C C9U U10C G38U A39U | 0.0819
G5C C6G U7C U10C A29G A30C | 2.29
C6A U7C G8U C9U U10C | 2.41
A14G G15U | 0.0597
G5U G8U C9U A47U G48A | 0.0727
U4G G5C C6A U7C G8A U10A | 0.0964
G5A U7C G8A U10C G11U G12C | 0.738
G5A C6U U7A G8U C9A G11C | 0.191

Variant | exon inclusion enrichment index
G5C C6A U7C G8A U10A G43C C44G | 1.22
C6A U7A C9A U10A C19A A20C | 0.41
G5C C6G U7C U10C G28U A29U | 1.08
G5U C6A U7C G8A U10C | 1.56
C6A U7C C9A U10C G12C G13U | 0.77
G5A U7C G8A U10C G13U | 0.0615
C6A U7A C9A U10A A14G G15A | 0.841
G5A U7C G8A U10C G42U G43U | 3.03
G5A U7C G8A U10C A40C G41C | 3.47
C6A U7C C9A U10C G15A C16G | 2.11
G5C C6A U7C G8A U10A A31G U32A | 0.854
G5C C6G U7C U10C A40U G41U | 2.15
G5A C6G G8C C9A | 0.0264
G5C C6A U7C G8A U10A G12A G13U | 0.016
G5A C6G U7G C9A C16U | 0.000705
G5C C6A U7C G8A U10A G33C G34A | 0.0324
G5A C6G U7G C9A A14U | 0.000641
G5A C6G U7G C9A A14G | 0.00241
G5C C6A U7C G8A U10A G26C | 0.141
G5A C6U U7A G8U C9A G41A G42A | 0.0506
G5A U7A C9A U10A | 0.318
G5C C6A U7C G8A U10A A23C C24A | 0.209
G5A U7C G8A U10C G12C G13A | 0.95
U4C G5C C6U U7A G8U C9A | 0.704

Variant | exon inclusion enrichment index
G5U G8U C9U A31C U32C | 0.544
G5A C6U U7A G8U C9A G26C U27C | 0.489
G5A C6U U7A G8U C9A G26C U27G | 0.442
G5C C6G U7C U10C A23C | 2.88
G5C C6U G8C C9U U10C A20G | 2.69
G5C C6U G8C C9U U10C A20C | 1.41
G5C C6A U7C G8A U10A C22U | 0.0831
C6A U7A C9A U10A G26U | 0.794
G5A C6U U7A G8U C9A G11U G12C | 0.033
G5U C6U U7G G8U C9U | 0.119
G5A C6G G8A U10C | 0.184
G8U C9G | 0.455
G8U C9U | 0.3
G5A C6U U7A G8U C9A G41A | 0.0374
G5U G8U C9U G41A G42C | 0.348
G5C C6G U7C C9A | 2.73
G5C C6U G8C C9U U10C C36A A37G | 0.805
G5C C6G U7C U10C G12U G13A | 0.404
G11A G12U | 0.888
C6A U7A C9A U10A G13A A14G | 1.21
G5U C6A U7C C9A U10C | 2.8
U10C G11U | 2.21
U10C G11A | 1.76
G5A C6G U7G C9A G42A G43C | 0.0943

Variant | exon inclusion enrichment index
G5C C6A U7C G8A U10A C44G A45C | 0.204
G5C C6A U7C G8A U10A A25G G26C | 0.647
G5A C6U U7A G8U C9A G34C | 0.0129
G5C C6G U7C U10C C44U | 1.47
U7C G8A | 1.44
G5C C6G U7C U10C G46A A47U | 3.68
C6A U7C C9A U10C C44A A45C | 4.04
G5A C6G U7C G8A U10C | 0.446
G5U G8U C9U G13C A14U | 0.1
G5C C6G U7C U10C A31C U32G | 3.82
G5C C6A U7C G8U C9A U10A | 0.0885
G5U G8U C9U A25U G26U | 0.0927
G5U G8U C9U A25U G26C | 0.219
G5C C6A U7G U10A | 0.0115
G5C C6A U7C G8A U10A A30U A31G | 0.105
G5A C6U U7A G8U C9A U10G G11A | 0.0194
G26C | 0.156
G5A C6U U7A G8U C9A A45C G46U | 0.0134
G5C C6U G8C C9U U10C G34A A35U | 0.568
G12U G13A | 0.608
G5A C6G U7G C9A C16U U17C | 0.000766
C6A U7C C9A U10C C24A | 2.94
C6A U7C C9A U10C U27A G28C | 3.18
G5C C6U U7G G8A C9U U10C | 1.49

Variant | exon inclusion enrichment index
G15A C16A | 0.03
C6A U7C C9A U10C C18U C19G | 1.93
G5C C6U G8C C9U U10C A39U A40C | 2.16
G5A C6U U7A G8U C9A A35G C36G | 0.00488
G5C G8U C9U | 0.0356
G5A C6G U7G C9A C36A A37C | 0.00188
G5C C6U G8C U10C | 2.2
G5C C6A U7C G8A U10A C18A C19G | 0.00323
C6A G8C C9A U10A | 0.392
G5U G8U C9U G12A G13U | 0.000463
G2A U3A G5A C6G U7G C9A | 0.00701
G5A U7C G8A U10C A31C U32C | 3.58
G5A C6G U7G G8U C9G | 0.00173
G5U G8U C9U A37C G38A | 0.157
G5A C6U U7A G8U C9A G15A C16G | 0.0191
G5C C6A U7C G8A U10A C18G C19A | 0.143
G5C C6U U7C U10C | 3.59
G5A C6G U7G C9A C16G U17A | 0.00122
G5A C6U U7A G8U C9A C24A A25G | 0.0412
G5C C6U G8C C9G U10C | 3.48
G5U G8U C9U C44G | 0.278
U4G C6A U7A C9A U10A | 0.488
C6A U7C C9A U10C G33A | 0.648
C6A U7C C9A U10C A23C C24U | 2.26

Variant | exon inclusion enrichment index
G5A C6U U7A G8U C9A C16A U17G | 0.0322
G5U G8U C9U A39G A40C | 0.128
G5U G8U C9U C36U A37C | 0.0658
G5C C6A U7C G8A U10A C22A A23G | 0.124
C6A U7A C9A U10A G15A C16G | 0.366
G5A C6G U7G C9A C44A A45C | 0.00399
G5C C6A U7C G8A U10A G28C A29U | 0.0485
G5C C6G U7C U10C G21C C22A | 3.02
C22G | 2.76
G5U G8U C9U C22U A23C | 0.0522
G5A C6U U7A G8U C9A A20U G21A | 0.0106
G5C C6G U7C U10C U17C C18G | 4.56
G5A C6U U7A G8U C9A G48C | 0.13
G5C C6G U7C U10C A30U | 3.07
G5C C6U U7C C9A U10C | 3.23
U4A G5C C6U U7A G8U C9A | 0.177
C6A U7A C9A U10A G41U G42A | 0.192
G5A C6U U7A G8U C9A G43U C44A | 0.00905
G5C C6U G8C C9U U10C G13U A14G | 0.52
G5A C6U U7A G8U C9A G12A G13U | 0.000604
G5A C6U U7A G8U C9A G12A G13A | 0.027
G5A C6A U7G G8A U10C | 1.08
G5C C6G U7C U10C G43U C44G | 0.713
G5C C6U G8C C9U U10C G46U A47C | 2.75

Variant | exon inclusion enrichment index
G5C C6U G8C C9U U10C G42C G43C | 2.72
C6A U7C C9A U10C C16A U17C | 3.21
C6A U7A C9U U10A | 0.0203
G5C C6G U7C U10C A25C G26A | 4.67
G5U G8U C9U A35U | 0.0145
G5A C6U U7A G8U C9A A14C | 0.0601
G5A C6U U7A G8U C9A C16G U17A | 0.0334
G5C C6A U7C G8A U10A A37U | 0.0984
G5A C6G U7G C9A A25G G26U | 0.0111
G5C C6U G8C C9U U10C A35C C36A | 1.37
G5C C6U G8C C9U U10C A35C C36G | 1.57
G5A C6U U7A G8U C9A U32C | 0.14
G5C C6U G8C C9U U10C G34U | 0.391
G5C C6G U7C U10C A29U A30G | 3.83
G5A C6G U7G C9A A25G | 0.0133
C16A U17A | 0.0497
G5C C6G U7C C9A U10G | 1.77
C6A U7A C9A U10A C19U A20C | 0.579
G5A C6U U7A G8U C9A G12C G13A | 0.0284
G5C C6A U7C G8A U10A C19A A20U | 0.00249
G5A C6G U7G C9A C18U C19U | 0.00102
G5A U7C G8A U10C G38U | 0.919
C6A U7A C9A U10A G11A G12A | 1.79

Reference: the RNAGym collection of RNA variant scans (doi:10.1101/gr.219683.116)
